The numbers were not newly measured in publication PMC11854596, which cites them from elsewhere.

For orientation: Kd means a measure of binding affinity in units of concentration.

This series addresses 53BP1 BRCT (Homo sapiens) (UniProt Q12888).

Sequence of 53BP1 BRCT (Homo sapiens) (Q12888 1714-1972): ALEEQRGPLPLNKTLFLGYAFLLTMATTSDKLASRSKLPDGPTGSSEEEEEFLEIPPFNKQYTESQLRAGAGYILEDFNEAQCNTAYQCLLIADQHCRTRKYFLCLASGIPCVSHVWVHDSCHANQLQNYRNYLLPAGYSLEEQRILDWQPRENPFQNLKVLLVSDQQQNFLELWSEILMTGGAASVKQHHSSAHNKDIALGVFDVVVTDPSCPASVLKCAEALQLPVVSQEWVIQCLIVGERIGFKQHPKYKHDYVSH

Take γH2AX (from UniProt P16104): the Kd was 2700 nM.
